These results are taken from patent US20120107299.

This data set has as its system GST protein [GST: P08515].

GST protein [GST: P08515], sequence (P08515 whole entry): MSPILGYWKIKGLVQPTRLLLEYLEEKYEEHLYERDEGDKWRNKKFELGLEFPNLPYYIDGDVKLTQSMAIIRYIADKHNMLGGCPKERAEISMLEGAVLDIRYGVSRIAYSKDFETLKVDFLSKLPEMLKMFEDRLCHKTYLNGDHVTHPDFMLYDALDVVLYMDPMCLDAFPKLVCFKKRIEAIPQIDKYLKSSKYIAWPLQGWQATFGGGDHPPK

Regarding FLAG-PTEN, the “in vitro dephosphorylation of PTEN, Western blot with anti-PTEN antibodies specific to each phosphorylation” value is “dephosphorylation of PTEN was not recognized in the GST protein”.
